The target in the test is rabbit skeletal muscle type 1 ryanodine receptor (RyR1) (rabbit (Oryctolagus cuniculus)) (UniProt P11716). The experiment in a line: cryo-EM structure.

For one substance, stoichiometry N results are on record in PMC4300236.

Chain of rabbit skeletal muscle type 1 ryanodine receptor (RyR1), P11716 1-5037 (P11716 whole entry): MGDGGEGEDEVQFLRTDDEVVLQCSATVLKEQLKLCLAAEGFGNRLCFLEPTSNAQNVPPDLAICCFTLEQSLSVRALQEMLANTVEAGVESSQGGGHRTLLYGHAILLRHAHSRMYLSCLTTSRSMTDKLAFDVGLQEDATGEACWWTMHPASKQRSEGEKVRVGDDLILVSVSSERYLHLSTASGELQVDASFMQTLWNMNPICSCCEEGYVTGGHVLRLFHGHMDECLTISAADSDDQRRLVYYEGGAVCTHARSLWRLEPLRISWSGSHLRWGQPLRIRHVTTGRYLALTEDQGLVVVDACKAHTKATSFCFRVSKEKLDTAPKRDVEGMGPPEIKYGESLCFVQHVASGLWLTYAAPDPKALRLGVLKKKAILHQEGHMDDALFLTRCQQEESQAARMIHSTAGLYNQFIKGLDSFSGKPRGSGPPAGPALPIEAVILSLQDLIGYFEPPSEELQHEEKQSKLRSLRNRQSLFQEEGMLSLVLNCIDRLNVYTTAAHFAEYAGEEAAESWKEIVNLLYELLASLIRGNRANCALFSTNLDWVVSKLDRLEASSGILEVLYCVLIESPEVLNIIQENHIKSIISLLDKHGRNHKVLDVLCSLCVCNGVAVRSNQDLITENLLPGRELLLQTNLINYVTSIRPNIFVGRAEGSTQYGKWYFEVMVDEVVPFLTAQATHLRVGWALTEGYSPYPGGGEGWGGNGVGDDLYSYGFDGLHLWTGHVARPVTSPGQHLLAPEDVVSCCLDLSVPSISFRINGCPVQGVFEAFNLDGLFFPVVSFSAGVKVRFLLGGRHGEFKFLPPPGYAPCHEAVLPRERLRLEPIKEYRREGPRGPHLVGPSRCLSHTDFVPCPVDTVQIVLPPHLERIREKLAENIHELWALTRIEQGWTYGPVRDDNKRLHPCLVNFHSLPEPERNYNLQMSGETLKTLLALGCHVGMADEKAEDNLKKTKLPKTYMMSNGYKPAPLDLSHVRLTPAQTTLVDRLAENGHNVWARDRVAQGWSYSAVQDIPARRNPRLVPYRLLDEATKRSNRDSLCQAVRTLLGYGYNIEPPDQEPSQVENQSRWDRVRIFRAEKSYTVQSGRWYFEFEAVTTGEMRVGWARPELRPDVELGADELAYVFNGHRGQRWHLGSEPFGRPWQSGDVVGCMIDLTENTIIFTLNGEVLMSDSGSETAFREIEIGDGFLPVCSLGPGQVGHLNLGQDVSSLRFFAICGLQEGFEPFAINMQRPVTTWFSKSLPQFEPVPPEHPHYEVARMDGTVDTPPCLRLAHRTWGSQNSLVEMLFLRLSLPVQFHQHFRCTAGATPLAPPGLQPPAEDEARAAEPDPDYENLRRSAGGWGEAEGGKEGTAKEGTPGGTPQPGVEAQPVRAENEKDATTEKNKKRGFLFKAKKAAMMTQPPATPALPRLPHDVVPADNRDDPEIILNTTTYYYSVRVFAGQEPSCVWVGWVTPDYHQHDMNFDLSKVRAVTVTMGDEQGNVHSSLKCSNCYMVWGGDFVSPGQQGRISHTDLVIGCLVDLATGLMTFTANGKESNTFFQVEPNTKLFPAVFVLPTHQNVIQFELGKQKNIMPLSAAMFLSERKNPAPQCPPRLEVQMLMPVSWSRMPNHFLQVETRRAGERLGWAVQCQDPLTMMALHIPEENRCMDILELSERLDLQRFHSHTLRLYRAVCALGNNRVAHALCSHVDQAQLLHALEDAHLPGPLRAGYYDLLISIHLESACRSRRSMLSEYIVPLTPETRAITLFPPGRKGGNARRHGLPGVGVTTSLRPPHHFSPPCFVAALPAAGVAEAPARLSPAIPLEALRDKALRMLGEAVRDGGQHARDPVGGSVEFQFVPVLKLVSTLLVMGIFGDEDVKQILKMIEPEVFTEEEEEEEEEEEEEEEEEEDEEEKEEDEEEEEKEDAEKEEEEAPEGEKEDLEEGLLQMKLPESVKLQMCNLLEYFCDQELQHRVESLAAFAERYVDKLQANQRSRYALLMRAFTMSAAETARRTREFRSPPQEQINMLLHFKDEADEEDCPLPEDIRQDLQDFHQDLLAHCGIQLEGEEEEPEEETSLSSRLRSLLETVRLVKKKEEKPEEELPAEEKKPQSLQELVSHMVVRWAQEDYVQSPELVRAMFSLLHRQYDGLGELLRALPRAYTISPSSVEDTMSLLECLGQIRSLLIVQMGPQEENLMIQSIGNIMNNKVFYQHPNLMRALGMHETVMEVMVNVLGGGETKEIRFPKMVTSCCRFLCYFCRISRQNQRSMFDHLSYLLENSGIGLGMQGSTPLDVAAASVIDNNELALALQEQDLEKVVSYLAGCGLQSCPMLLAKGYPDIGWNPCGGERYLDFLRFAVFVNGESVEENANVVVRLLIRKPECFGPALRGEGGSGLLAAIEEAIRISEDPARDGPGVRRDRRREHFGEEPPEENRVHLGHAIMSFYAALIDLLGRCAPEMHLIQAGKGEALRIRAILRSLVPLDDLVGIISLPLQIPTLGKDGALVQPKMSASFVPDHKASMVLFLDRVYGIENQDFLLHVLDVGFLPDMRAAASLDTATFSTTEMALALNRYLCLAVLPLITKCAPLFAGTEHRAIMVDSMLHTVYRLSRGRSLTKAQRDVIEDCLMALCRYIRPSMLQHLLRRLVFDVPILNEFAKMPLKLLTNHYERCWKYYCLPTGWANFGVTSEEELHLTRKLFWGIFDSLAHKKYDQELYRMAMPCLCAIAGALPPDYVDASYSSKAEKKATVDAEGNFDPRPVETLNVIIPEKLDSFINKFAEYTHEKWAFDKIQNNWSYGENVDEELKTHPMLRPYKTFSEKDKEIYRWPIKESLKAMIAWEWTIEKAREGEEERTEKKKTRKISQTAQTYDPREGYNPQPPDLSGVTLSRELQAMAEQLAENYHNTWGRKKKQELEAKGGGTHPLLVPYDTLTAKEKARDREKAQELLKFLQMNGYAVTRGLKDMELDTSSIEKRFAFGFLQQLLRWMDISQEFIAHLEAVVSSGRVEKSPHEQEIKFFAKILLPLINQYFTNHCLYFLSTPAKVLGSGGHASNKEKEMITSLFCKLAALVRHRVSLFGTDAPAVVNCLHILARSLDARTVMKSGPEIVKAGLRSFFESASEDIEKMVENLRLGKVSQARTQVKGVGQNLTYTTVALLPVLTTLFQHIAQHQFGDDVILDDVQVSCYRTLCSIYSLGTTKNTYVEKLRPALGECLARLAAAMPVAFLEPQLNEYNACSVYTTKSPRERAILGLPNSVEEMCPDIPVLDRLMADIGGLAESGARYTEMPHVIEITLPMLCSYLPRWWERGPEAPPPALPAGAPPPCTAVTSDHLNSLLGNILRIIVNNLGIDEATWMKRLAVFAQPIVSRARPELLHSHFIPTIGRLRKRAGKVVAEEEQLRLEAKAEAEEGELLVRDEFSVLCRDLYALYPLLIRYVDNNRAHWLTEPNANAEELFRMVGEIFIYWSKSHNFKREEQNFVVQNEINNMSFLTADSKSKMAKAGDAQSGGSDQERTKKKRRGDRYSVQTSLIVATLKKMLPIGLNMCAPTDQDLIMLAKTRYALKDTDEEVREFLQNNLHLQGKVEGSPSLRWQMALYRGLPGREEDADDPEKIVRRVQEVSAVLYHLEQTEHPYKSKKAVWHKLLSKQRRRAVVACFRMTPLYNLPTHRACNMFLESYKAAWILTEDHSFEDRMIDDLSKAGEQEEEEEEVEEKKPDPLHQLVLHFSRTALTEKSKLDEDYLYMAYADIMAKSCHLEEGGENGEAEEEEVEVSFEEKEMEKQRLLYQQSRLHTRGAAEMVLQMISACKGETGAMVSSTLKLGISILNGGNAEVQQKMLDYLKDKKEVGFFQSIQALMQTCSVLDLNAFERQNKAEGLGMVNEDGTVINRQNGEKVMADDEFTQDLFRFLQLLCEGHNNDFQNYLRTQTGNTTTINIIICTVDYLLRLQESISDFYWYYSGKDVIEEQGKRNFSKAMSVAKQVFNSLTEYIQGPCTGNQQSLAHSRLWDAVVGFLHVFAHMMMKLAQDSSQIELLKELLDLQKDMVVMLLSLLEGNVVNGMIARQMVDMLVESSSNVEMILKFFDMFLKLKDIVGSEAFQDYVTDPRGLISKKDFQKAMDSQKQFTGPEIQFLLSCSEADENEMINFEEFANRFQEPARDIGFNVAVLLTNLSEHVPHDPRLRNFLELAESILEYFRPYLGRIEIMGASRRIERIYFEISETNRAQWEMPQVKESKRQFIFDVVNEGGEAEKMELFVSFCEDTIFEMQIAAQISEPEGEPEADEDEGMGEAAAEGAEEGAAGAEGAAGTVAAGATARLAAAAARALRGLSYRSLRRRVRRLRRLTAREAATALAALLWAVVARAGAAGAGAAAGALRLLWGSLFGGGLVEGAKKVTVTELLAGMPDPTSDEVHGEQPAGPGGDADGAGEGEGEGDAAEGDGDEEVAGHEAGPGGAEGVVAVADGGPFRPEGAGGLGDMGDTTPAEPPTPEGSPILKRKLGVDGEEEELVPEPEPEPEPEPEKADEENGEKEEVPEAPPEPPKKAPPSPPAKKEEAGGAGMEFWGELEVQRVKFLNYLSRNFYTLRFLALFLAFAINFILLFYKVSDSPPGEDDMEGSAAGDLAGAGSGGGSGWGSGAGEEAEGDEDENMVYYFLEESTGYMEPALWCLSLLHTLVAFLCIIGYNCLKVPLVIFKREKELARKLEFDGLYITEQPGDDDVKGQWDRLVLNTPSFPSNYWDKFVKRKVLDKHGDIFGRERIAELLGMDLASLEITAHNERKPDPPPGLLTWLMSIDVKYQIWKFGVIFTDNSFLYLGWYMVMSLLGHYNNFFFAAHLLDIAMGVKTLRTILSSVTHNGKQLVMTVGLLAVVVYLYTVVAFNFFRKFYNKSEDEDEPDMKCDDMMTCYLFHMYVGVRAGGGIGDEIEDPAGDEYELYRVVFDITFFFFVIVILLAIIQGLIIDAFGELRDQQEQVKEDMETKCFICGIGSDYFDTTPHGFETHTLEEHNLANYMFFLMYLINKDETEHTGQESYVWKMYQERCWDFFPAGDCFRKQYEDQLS

Take “rabbit skeletal muscle type 1 ryanodine receptor (RyR1), P11716 1-5037”: the stoichiometry N (commonly a count of units in the complex or per binding partner) came to 4.
